Laboratory results from US20240366776A1 (Hoffmann-La Roche, published 2024).
Residue numbers refer to the chain shown, from its start.

T1: biotinylated IL-2 receptor beta gamma heterodimer Fc (IL-2RBG; Acro ILG-H5254) (UniProt P14784 27-239; P31785 23-262, biotinylated)
T1 construct: bought heterodimer
T1 sequence (looked up) 1: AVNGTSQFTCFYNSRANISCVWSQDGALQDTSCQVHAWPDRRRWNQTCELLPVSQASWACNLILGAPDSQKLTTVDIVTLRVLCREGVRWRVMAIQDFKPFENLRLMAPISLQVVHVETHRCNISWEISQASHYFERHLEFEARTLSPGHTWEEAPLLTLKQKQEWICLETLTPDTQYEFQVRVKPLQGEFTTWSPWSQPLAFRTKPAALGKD
T1 sequence (looked up) 2: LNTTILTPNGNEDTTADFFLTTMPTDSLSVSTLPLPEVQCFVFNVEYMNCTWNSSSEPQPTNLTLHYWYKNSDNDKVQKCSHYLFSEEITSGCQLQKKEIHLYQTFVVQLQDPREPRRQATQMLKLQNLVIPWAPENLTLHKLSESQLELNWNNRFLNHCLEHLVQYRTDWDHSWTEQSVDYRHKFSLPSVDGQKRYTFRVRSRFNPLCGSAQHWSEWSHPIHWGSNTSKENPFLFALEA

B1: AF4379 (other)
heavy: APTSSSTKKTQLQLEHLLLDLQMILNGINNYKNPKLTDMLTFEFYMPKKATELKHLQCLERELKPLEEVLNLAQSKNFHLRPRDLISNINVIVLELKGSETTFMCEYADETATIVEFLNRWITFCQSIISTLTGGGGSGGGGSGGGGSGGGGSQVQLVQSGAEVKKPGASVKVSCKASGDTFTRYYVHWVRQAPGQGLEWMGIINPSGGYASYAQKFQGRVTMTRDTSTSTVYMELSSLRSEDTAVYYCAAGLFIWGQGTLVTVSSAKTTAPSVYPLAPVCGDTTGSSVTLGCLVKGYFPEPVTLTWNSGSLSSGVHTFPAVLQSDLYTLSSSVTVTSSTWPSQSITCNVAHPASSTKVDKKIEPRGPTIKPCPPCKCPAPNAAGGPSVFIFPPKIKDVLMISLSPIVTCVVVDVSEDDPDVQISWFVNNVEVHTAQTQTHREDYNSTLRVVSALPIQHQDWMSGKEFKCKVNNKDLGAPIERTISKPKGSVRAPQVYVLPPPEEEMTKKQVTLTCMVTDFMPEDIYVEWTNNGKTELNYKNTEPVLDSDGSYFMYSKLRVEKKNWVERNSYSCSVVHEGLHNHHTTKSFSRTPGK
light: DIQMTQSPSSLSASVGDRVTITCRASQSIGRYLAWYQQKPGKAPKLLIYSASNLETGVPSRFSGSGSGTDFTLTISSLQPEDFATYYCQQYNSFPVTFGPGTKVDIKRADAAPTVSIFPPSSEQLTSGGASVVCFLNNFYPKDINVKWKIDGSERQNGVLNSWTDQDSKDSTYSMSSTLTLTKDEYERHNSYTCEATHKTSTSPIVKSFNRNEC
B2: AF4403 (other)
heavy 1: QVQLVESGGGVVQPGRSLRLDCKASGITFSNSGMHWVRQAPGKGLEWVAVIWYDGSKRYYADSVKGRFTISRDNSKNTLFLQMNSLRAEDTAVYYCATNDDYWGQGTLVTVSSAKTTAPSVYPLAPVCGDTTGSSVTLGCLVKGYFPEPVTLTWNSGSLSSGVHTFPAVLQSDLYTLSSSVTVTSSTWPSQSITCNVAHPASSTKVDKKIEPRGPTIKPCPPCKCPAPNAAGGPSVFIFPPKIKDVLMISLSPIVTCVVVDVSEDDPDVQISWFVNNVEVHTAQTQTHREDYNSTLRVVSALPIQHQDWMSGKEFKCKVNNKDLGAPIERTISKPKGSVRAPQVYVLPPPEEEMTKKQVTLTCMVTDFMPEDIYVEWTNNGKTELNYKNTEPVLDSDGSYFMYSDLRVEKKNWVERNSYSCSVVHEGLHNHHTTESFSRTPGGGGGSGGGGSGGGGSAPTSSSTKKTQLQLEHLLLDLQMILNGINNYKNPKLTDMLTFEFYMPKKATELKHLQCLERELKPLEEVLNLAQSKNFHLRPRDLISNINVIVLELKGSETTFMCEYADETATIVEFLNRWITFCQSIISTLT
heavy 2: QVQLVESGGGVVQPGRSLRLDCKASGITFSNSGMHWVRQAPGKGLEWVAVIWYDGSKRYYADSVKGRFTISRDNSKNTLFLQMNSLRAEDTAVYYCATNDDYWGQGTLVTVSSAKTTAPSVYPLAPVCGDTTGSSVTLGCLVKGYFPEPVTLTWNSGSLSSGVHTFPAVLQSDLYTLSSSVTVTSSTWPSQSITCNVAHPASSTKVDKKIEPRGPTIKPCPPCKCPAPNAAGGPSVFIFPPKIKDVLMISLSPIVTCVVVDVSEDDPDVQISWFVNNVEVHTAQTQTHREDYNSTLRVVSALPIQHQDWMSGKEFKCKVNNKDLGAPIERTISKPKGSVRAPQVYVLPPPEKEMTKKQVSLTCLVKDFMPEDIYVEWTNNGKTELNYKNTEPVLKSDGSYFMYSKLTVEKKNWVERNSYSCSVVHEGLHNHHTTKSFSRTPGGGGGSGGGGSGGGGSGGGGSQVQLVQSGAEVKKPGASVKVSCKASGDTFTRYYVHWVRQAPGQGLEWMGIINPSGGYASYAQKFQGRVTMTRDTSTSTVYMELSSLRSEDTAVYYCAAGLFIWGQGTLVTVSSASGGGGSGGGGSGGGGSHASDIQMTQSPSSLSASVGDRVTITCRASQSIGRYLAWYQQKPGKAPKLLIYSASNLETGVPSRFSGSGSGTDFTLTISSLQPEDFATYYCQQYNSFPVTFGPGTKVDIKGGGSGGGSHHHHHH
light: EIVLTQSPATLSLSPGERATLSCRASQSVSSYLAWYQQKPGQAPRLLIYDASNRATGIPARFSGSGSGTDFTLTISSLEPEDFAVYYCQQSSNWPRTFGQGTKVEIKRADAAPTVSIFPPSSEQLTSGGASVVCFLNNFYPKDINVKWKIDGSERQNGVLNSWTDQDSKDSTYSMSSTLTLTKDEYERHNSYTCEATHKTSTSPIVKSFNRNEC
B3: AF4404 (other)
heavy 1: B2 heavy 1
heavy 2: QVQLVESGGGVVQPGRSLRLDCKASGITFSNSGMHWVRQAPGKGLEWVAVIWYDGSKRYYADSVKGRFTISRDNSKNTLFLQMNSLRAEDTAVYYCATNDDYWGQGTLVTVSSAKTTAPSVYPLAPVCGDTTGSSVTLGCLVKGYFPEPVTLTWNSGSLSSGVHTFPAVLQSDLYTLSSSVTVTSSTWPSQSITCNVAHPASSTKVDKKIEPRGPTIKPCPPCKCPAPNAAGGPSVFIFPPKIKDVLMISLSPIVTCVVVDVSEDDPDVQISWFVNNVEVHTAQTQTHREDYNSTLRVVSALPIQHQDWMSGKEFKCKVNNKDLGAPIERTISKPKGSVRAPQVYVLPPPEKEMTKKQVSLTCLVKDFMPEDIYVEWTNNGKTELNYKNTEPVLKSDGSYFMYSKLTVEKKNWVERNSYSCSVVHEGLHNHHTTKSFSRTPGGGGGSGGGGSGGGGSGGGGSQVQLVQSGAEVKKPGASVKVSCKASGYTFTDYYMHWVRQAPGQGLEWMGIINPRAGYTSYALKFQGRVTMTRDTSTSTVYMELSSLRSEDTAVYYCTSGWDVWGQGTLVTVSSASGGGGSGGGGSGGGGSHASDIQMTQSPSSLSASVGDRVTITCRASQSISTWLAWYQQKPGKAPKLLIYAASSLDSGVPSRFSGSGSGTDFTLTISSLQPEDFATYYCQQSYSFPVTFGQGTKVEIKGGGSGGGSHHHHHH
light: B2 light
B4: AF003953 (other)
heavy 1: APASSSTKKTQLQLEHLLLDLQMILNGINNYKNPKLTRMLTAKFAMPKKATELKHLQCLEEELKPLEEVLNGAQSKNFHLRPRDLISNINVIVLELKGSETTFMCEYADETATIVEFLNRWITFAQSIISTLTGGGGSGGGGSGGGGSGGGGSQVQLVQSGAEVKKPGASVKVSCKASGYTFTTYYMHWVRQAPGQGLEWMGIINPRAGYTSYALKFQGRVTMTRDTSTSTVYMELSSLRSEDTAVYYCTSGWDVWGQGTLVTVSSAKTTAPSVYPLAPVCGDTTGSSVTLGCLVKGYFPEPVTLTWNSGSLSSGVHTFPAVLQSDLYTLSSSVTVTSSTWPSQSITCNVAHPASSTKVDKKIEPRGPTIKPCPPCKCPAPNAAGGPSVFIFPPKIKDVLMISLSPIVTCVVVDVSEDDPDVQISWFVNNVEVHTAQTQTHREDYNSTLRVVSALPIQHQDWMSGKEFKCKVNNKDLGAPIERTISKPKGSVRAPQVYVLPPPEEEMTKKQVTLTCMVTDFMPEDIYVEWTNNGKTELNYKNTEPVLDSDGSYFMYSDLRVEKKNWVERNSYSCSVVHEGLHNHHTTESFSRTPGK
heavy 2: QVQLVQSGAEVKKPGASVKVSCKASGYTFTTYYMHWVRQAPGQGLEWMGIINPRAGYTSYALKFQGRVTMTRDTSTSTVYMELSSLRSEDTAVYYCTSGWDVWGQGTLVTVSSAKTTAPSVYPLAPVCGDTTGSSVTLGCLVKGYFPEPVTLTWNSGSLSSGVHTFPAVLQSDLYTLSSSVTVTSSTWPSQSITCNVAHPASSTKVDKKIEPRGPTIKPCPPCKCPAPNAAGGPSVFIFPPKIKDVLMISLSPIVTCVVVDVSEDDPDVQISWFVNNVEVHTAQTQTHREDYNSTLRVVSALPIQHQDWMSGKEFKCKVNNKDLGAPIERTISKPKGSVRAPQVYVLPPPEKEMTKKQVSLTCLVKDFMPEDIYVEWTNNGKTELNYKNTEPVLKSDGSYFMYSKLTVEKKNWVERNSYSCSVVHEGLHNHHTTKSFSRTPGGGGSGGGSHHHHHH
light: DIQMTQSPSSLSASVGDRVTITCRASQSISTWLAWYQQKPGKAPKLLIYAASSLDSGVPSRFSGSGSGTDFTLTISSLQPEDFATYYCQQSYSFPVTFGQGTKVEIKRADAAPTVSIFPPSSEQLTSGGASVVCFLNNFYPKDINVKWKIDGSERQNGVLNSWTDQDSKDSTYSMSSTLTLTKDEYERHNSYTCEATHKTSTSPIVKSFNRNEC
notes: also called AF3953
B5: AF003955 (other)
heavy 1: APASSSTKKTQLQLEHLLLDLQMILNGINNYKNPKLTRMLTAKFAMPKKATELKHLQCLEEELKPLEEVLNGAQSKNFHLRPRDLISNINVIVLELKGSETTFMCEYADETATIVEFLNRWITFAQSIISTLTGGGGSGGGGSGGGGSGGGGSQVQLVQSGAEVKKPGASVKVSCKASGHTFTRYYMHWVRQAPGQGLEWMGIINPSGGYATYAQKFQGRVTMTRDTSTSTVYMELSSLRSEDTAVYYCASGLFIWGQGTLVTVSSAKTTAPSVYPLAPVCGDTTGSSVTLGCLVKGYFPEPVTLTWNSGSLSSGVHTFPAVLQSDLYTLSSSVTVTSSTWPSQSITCNVAHPASSTKVDKKIEPRGPTIKPCPPCKCPAPNAAGGPSVFIFPPKIKDVLMISLSPIVTCVVVDVSEDDPDVQISWFVNNVEVHTAQTQTHREDYNSTLRVVSALPIQHQDWMSGKEFKCKVNNKDLGAPIERTISKPKGSVRAPQVYVLPPPEEEMTKKQVTLTCMVTDFMPEDIYVEWTNNGKTELNYKNTEPVLDSDGSYFMYSDLRVEKKNWVERNSYSCSVVHEGLHNHHTTESFSRTPGK
heavy 2: QVQLVQSGAEVKKPGASVKVSCKASGHTFTRYYMHWVRQAPGQGLEWMGIINPSGGYATYAQKFQGRVTMTRDTSTSTVYMELSSLRSEDTAVYYCASGLFIWGQGTLVTVSSAKTTAPSVYPLAPVCGDTTGSSVTLGCLVKGYFPEPVTLTWNSGSLSSGVHTFPAVLQSDLYTLSSSVTVTSSTWPSQSITCNVAHPASSTKVDKKIEPRGPTIKPCPPCKCPAPNAAGGPSVFIFPPKIKDVLMISLSPIVTCVVVDVSEDDPDVQISWFVNNVEVHTAQTQTHREDYNSTLRVVSALPIQHQDWMSGKEFKCKVNNKDLGAPIERTISKPKGSVRAPQVYVLPPPEKEMTKKQVSLTCLVKDFMPEDIYVEWTNNGKTELNYKNTEPVLKSDGSYFMYSKLTVEKKNWVERNSYSCSVVHEGLHNHHTTKSFSRTPGGGGSGGGSHHHHHH
light: B4 light with S30N, T31S, A51T, S53T, D55E, S91Y, S93R
notes: also called AF3955
B6: AF003956 (other)
heavy 1: B4 heavy 1 with T184D
heavy 2: B4 heavy 2 with T31D
light: B4 light with S93R
notes: also called AF3956

How the values were obtained:
[1] = molecular target: PD-1-Fc (UniProt Q15116 25-167, limits assumed); experiment: cell-based or functional assay
Chain of PD-1-Fc (Q15116 25-167 limits assumed): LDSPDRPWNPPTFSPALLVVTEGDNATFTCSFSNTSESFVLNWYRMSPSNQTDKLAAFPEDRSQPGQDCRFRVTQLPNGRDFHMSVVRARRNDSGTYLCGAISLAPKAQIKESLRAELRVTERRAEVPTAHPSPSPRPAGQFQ

[2] = molecular target: T1, biotinylated IL-2 receptor beta gamma …; experiment: ELISA, captured complex, biotin-IL-2RBG 10 nM, PD-1 Fc titrated

Row | Binder | IL-2 activity EC50, HEK-Blue IL-2 reporter cells, IgG1 coated wells (control) [1] [nM] | IL-2 activity EC50, HEK-Blue IL-2 reporter cells, PD-1 coated wells [1] [nM] | IL-2 activity EC50, HEK-Blue IL-2 reporter cells, control wells [1] [nM] | binding result [2]
1 | B1 | 0.062 | 0.031 |  | 
2 | B2 |  | 0.031 | 0.062 | 
3 | B3 |  | 0.026 | 0.064 | 
4 | B4 |  |  |  | binds
5 | B5 |  |  |  | binds
6 | B6 |  |  |  | binds
